± gives the uncertainty stated by the source.
B1: Ankyrin-3, residues 4094 to 4171; numbered along this chain, Q12955 (parent)
chain: MAIVADHLGLSWTELARELNFSVDEINQIRVENPNSLISQSFMLLKKWVTRDGKNATTDALTSVLTKINRIDIVTLLE

Variants of: B1
Experiment: abundance fitness (aPCA) (normalised: wild type 0, dead -1); higher = more abundant; growth selection in yeast, the domain comes from the species named
Settings: Homo sapiens

Row | Variant | abundance fitness
1 | MAIVADHLGLSWTELARELNFSVDEINQIRVENPNSLISQSFMLLKKWVTRDGKNATTDALTSVLNKINRIDIVTLLE | -0.112 ± 0.12
2 | MAIVADHLGLSWTELARELNFSVDEINQIRVENPNSLISQSFMLLKKWVTRDGKNATTDALTSVLRKINRIDIVTLLE | -0.07 ± 0.051
3 | MAIVADHLGLSWTELARELNFSVDEINQIRVENPNSLISQSFMLLKKWVTRDGKNATTDALTSVLCKINRIDIVTLLE | -0.21 ± 0.078
4 | MAIVADHLGLSWTELARELNFSVDEINQIRVENPNSLISQSFMLLKKWVTRDGKNATTDALTSVLSKINRIDIVTLLE | -0.173 ± 0.051
5 | MAIVADHLGLSWTELARELNFSVDEINQIRVENPNSLISQSFMLLKKWVTRDGKNATTDALTSVLLKINRIDIVTLLE | -0.102 ± 0.05
6 | MAIVADHLGLSWTELARELNFSVDEINQIRVENPNSLISQSFMLLKKWVTRDGKNATTDALTSVLHKINRIDIVTLLE | -0.013 ± 0.092
7 | MAIVADHLGLSWTELARELNFSVDEINQIRVENPNSLISQSFMLLKKWVTRDGKNATTDALTSVLEKINRIDIVTLLE | -0.182 ± 0.16
8 | MAIVADHLGLSWTELARELNFSVDEINQIRVENPNSLISQSFMLLKKWVTRDGKNATTDALTSVLQKINRIDIVTLLE | 0.118 ± 0.068
9 | MAIVADHLGLSWTELARELNFSVDEINQIRVENPNSLISQSFMLLKKWVTRDGKNATTDALTSVLPKINRIDIVTLLE | -0.535 ± 0.064
10 | MAIVADHLGLSWTELARELNFSVDEINQIRVENPNSLISQSFMLLKKWVTRDGKNATTDALTSVLIKINRIDIVTLLE | -0.088 ± 0.07
11 | MAIVADHLGLSWTELARELNFSVDEINQIRVENPNSLISQSFMLLKKWVTRDGKNATTDALTSVLKKINRIDIVTLLE | -0.1 ± 0.12
12 | MAIVADHLGLSWTELARELNFSVDEINQIRVENPNSLISQSFMLLKKWVTRDGKNATTDALTSVLGKINRIDIVTLLE | -0.126 ± 0.046
13 | MAIVADHLGLSWTELARELNFSVDEINQIRVENPNSLISQSFMLLKKWVTRDGKNATTDALTSVLMKINRIDIVTLLE | -0.054 ± 0.076
14 | MAIVADHLGLSWTELARELNFSVDEINQIRVENPNSLISQSFMLLKKWVTRDGKNATTDALTSVLFKINRIDIVTLLE | -0.052 ± 0.081
15 | MAIVADHLGLSWTELARELNFSVDEINQIRVENPNSLISQSFMLLKKWVTRDGKNATTDALTSVLAKINRIDIVTLLE | -0.14 ± 0.057
16 | MAIVADHLGLSWTELARELNFSVDEINQIRVENPNSLISQSFMLLKKWVTRDGKNATTDALTSWLTKINRIDIVTLLE | -0.644 ± 0.26
17 | MAIVADHLGLSWTELARELNFSVDEINQIRVENPNSLISQSFMLLKKWVTRDGKNATTDALTSYLTKINRIDIVTLLE | -0.166 ± 0.15
18 | MAIVADHLGLSWTELARELNFSVDEINQIRVENPNSLISQSFMLLKKWVTRDGKNATTDALTSVITKINRIDIVTLLE | -0.847 ± 0.32

Row | Variant | abundance fitness
19 | MAIVADHLGLSWTELARELNFSVDEINQIRVENPNSLISQSFMLLKKWVTRDGKNATTDALTSVYTKINRIDIVTLLE | -0.737 ± 0.23
20 | MAIVADHLGLSWTELARELNFSVDEINQIRVENPNSLISQSFMLLKKWVTRDGKNATTDALTSVKTKINRIDIVTLLE | -0.528 ± 0.21
21 | MAIVADHLGLSWTELARELNFSVDEINQIRVENPNSLISQSFMLLKKWVTRDGKNATTDALTSVCTKINRIDIVTLLE | -0.505 ± 0.091
22 | MAIVADHLGLSWTELARELNFSVDEINQIRVENPNSLISQSFMLLKKWVTRDGKNATTDALTSVNTKINRIDIVTLLE | -0.426 ± 0.25
23 | MAIVADHLGLSWTELARELNFSVDEINQIRVENPNSLISQSFMLLKKWVTRDGKNATTDALTSVMTKINRIDIVTLLE | -0.651 ± 0.12
24 | MAIVADHLGLSWTELARELNFSVDEINQIRVENPNSLISQSFMLLKKWVTRDGKNATTDALTSVHTKINRIDIVTLLE | -0.973 ± 0.2
25 | MAIVADHLGLSWTELARELNFSVDEINQIRVENPNSLISQSFMLLKKWVTRDGKNATTDALTSVGTKINRIDIVTLLE | -0.825 ± 0.11
26 | MAIVADHLGLSWTELARELNFSVDEINQIRVENPNSLISQSFMLLKKWVTRDGKNATTDALTSVVTKINRIDIVTLLE | -0.779 ± 0.11
27 | MAIVADHLGLSWTELARELNFSVDEINQIRVENPNSLISQSFMLLKKWVTRDGKNATTDALTSVRTKINRIDIVTLLE | -0.902 ± 0.07
28 | MAIVADHLGLSWTELARELNFSVDEINQIRVENPNSLISQSFMLLKKWVTRDGKNATTDALTSVDTKINRIDIVTLLE | 0.076 ± 0.19
29 | MAIVADHLGLSWTELARELNFSVDEINQIRVENPNSLISQSFMLLKKWVTRDGKNATTDALTSVPTKINRIDIVTLLE | -0.701 ± 0.099
30 | MAIVADHLGLSWTELARELNFSVDEINQIRVENPNSLISQSFMLLKKWVTRDGKNATTDALTSVSTKINRIDIVTLLE | -0.884 ± 0.13
31 | MAIVADHLGLSWTELARELNFSVDEINQIRVENPNSLISQSFMLLKKWVTRDGKNATTDALTSVFTKINRIDIVTLLE | -0.752 ± 0.29
32 | MAIVADHLGLSWTELARELNFSVDEINQIRVENPNSLISQSFMLLKKWVTRDGKNATTDALTSVQTKINRIDIVTLLE | -1.05 ± 0.27
33 | MAIVADHLGLSWTELARELNFSVDEINQIRVENPNSLISQSFMLLKKWVTRDGKNATTDALTSVATKINRIDIVTLLE | -1.14 ± 0.19
34 | MAIVADHLGLSWTELARELNFSVDEINQIRVENPNSLISQSFMLLKKWVTRDGKNATTDALTSVWTKINRIDIVTLLE | -0.901 ± 0.16
35 | MAIVADHLGLSWTELARELNFSVDEINQIRVENPNSLISQSFMLLKKWVTRDGKNATTDALTSVETKINRIDIVTLLE | -0.824 ± 0.15
